In patent publication US11786477B2, “Fibrin particles and methods of making the same” (NORTH CAROLINA STATE UNIVERSITY, priority 2017, dated 2023):

How the values were obtained:
[1] = test system: epithelial dorsal dermal wounds; assay: In vivo dermal wound healing in mice; settings: C57BF/6 mice; for 3-day average dermal area closure: 4 mm biopsy punch wounds, first 3 days; for slope of linear fit of average % normalized wound area: assuming linear healing rate of the first 3 days
Procedure: In vivo validation that fibrin nanoparticles can assist wound healing was performed in mice. Dermal wounds were created and the rate of healing measured over several days. Two epithelial dorsal dermal wounds were created in10-week-old healthy male […]/6 mice (Charles River Faboratories Wilmington, Mass.) using a 4 mm diameter biopsy punch. The skin was excised and the inner […] was removed using surgical tools. Wound healing due to skin refolding was prevented by stitching the surrounding skin to a sterilized silicone ring. The annular silicone ring was laser cut from a silicone sheet acquired from Grace Bio-Fabs, Bend, Oreg., to a required inner diameter of 4.9 mm. The silicone ring was held in position with stationary glue and stitches. […] Each wound was immediately imaged using a handheld Nikon camera and separately treated with control 0.9% saline, bulk fibrin gel (400 (μg), FBN (20 (μg), or FBN-KGF (20 μg at the highest concentration). After treatment, the wound was covered with translucent moisture responsive catheter dressing (IV3000, Smith & Nephew, Andover, Mass.) attached over the silicone ring. The porous sheet was also laser cut to the required dimensions to aid the surgeon and to match the wound area. The wound area was imaged using a handheld Nikon camera every 24 hours after removing the translucent dressing. Image analysis of the wound was performed in ImageJ and the scale was measured using the known inner diameter of the silicone ring. The % change in wound area on each day was compared its wound area in day 0 (day of biopsy). The rate of wound healing was quantified by plotting averaged % normalized wound area for each wound treatment. The slope of a linear fit of the average % normalized wound area for the first 3 days post biopsy was calculated in Prism and 2-way Anova statistics were performed to compare the slopes of each treatment (FIG. 9).

[2] = test system: Human dermal fibroblasts; assay: In vitro 3D collagen gel wound model, cell migration into biopsied wound; type: cell-based; settings: 3D collagen gels, 20 μl sample into biopsied region, compared with saline and free KGF controls
Procedure: Human dermal fibroblasts (500,000 cells/ml) were embedded in 3D collagen gels (3 mg/ml) in serum-free culture media. Using biopsy punches, “wounds” 2 mm in diameter were created with approximately 0.5-1 mm depth. The biopsied 3D wounds were filled with fibrin nanoparticles (FBN), FBN with attached Keratinocyte Growth Factor (FBN-KGF) or saline (controls). The number of cells migrating into the hole from the surrounding 3D collagen gel was counted every 18-24 hours. Data from each sample was normalized to its biopsy area (in mm^2). The cell migration rate was measured by counting cell numbers within the normalized biopsy area (# cells/unit area) on each day. Each treatment was compared with saline and KGF only controls. […] Bulk fibrin sealants require high concentrations of fibrinogen and thrombin in order to induce fast polymerization at the surgical/wound site; by delivering prepolymerized FBNs we are able to circumvent this issue and without inhibiting migration.

Row | Molecule | 3-day average dermal area closure [1] [%] | slope of linear fit of average % normalized wound area [1] | cell recruitment / cell migration into 3D wound [2]
1 | FBN-KGF: Keratinocyte growth factor covalently coupled to FBN using carbodiimide and N-hydroxysulfosuccinimide (conjugate, UniProt P21781 32-194, looked up, coupled to FBN nanoparticles, Keratinocyte growth factor covalently coupled to FBN using carbodiimide and N-hydroxysulfosuccinimide) Fibroblast growth factor 7: CNDMTPEQMATNVNCSSPERHTRSYDYMEGGDIRVRRLFCRTQWYLRIDKRGKVKGTQEMKNNYNIMEIRTVAVGIVAIKGVESEFYLAMNKEGKLYAKKECNEDCNFKELILENHYNTYASAKWTHNGGEMFVALNQKGIPVRGKKTKKEQKTAHFLPMAIT | 48±9 | −16±3 | significantly enhanced cell recruitment and or cell proliferation
2 | free KGF: Keratinocyte growth factor (CYT-219, Prospec Protein Specialist) (protein, UniProt P21781 32-194, looked up) Fibroblast growth factor 7: CNDMTPEQMATNVNCSSPERHTRSYDYMEGGDIRVRRLFCRTQWYLRIDKRGKVKGTQEMKNNYNIMEIRTVAVGIVAIKGVESEFYLAMNKEGKLYAKKECNEDCNFKELILENHYNTYASAKWTHNGGEMFVALNQKGIPVRGKKTKKEQKTAHFLPMAIT | 42±12 | −14±2 | –
